Literature values, collected in article PMC2879707.

Biological target: F-actin (Oryctolagus cuniculus) (UniProt P68135)

Kd: 150 nM
Substance: espin (from UniProt Q63618)
